Assay: soluble on expression in E. coli; label from the status in PepcDB or PDB records

Sequence	soluble on expression in E. coli
MGSDKIHHHHHHMYMIKQNFTTKVYPLKQFEGEYSEVAYAGDSQADDVIVFIHGALLTYKIMTMFEPYFRDYKLIFINCPSRGRSSDLDRDTHTLDDYAARIYDVLTQIVKEQQIKELSIVGYSMGGMIATRLLKYNTLPVSHLIYLHSAAKITPDASMLARLFTSESKRAVLKDEIKAVKNLPQYILDKTIYAQKENALDLVQFIAPIKTIITDMIYTINTDYLPDIDEIKQFPKILFMSGKEDQIIPYTDSQATLEKFKALGGETKEVIYPGIGHIDFPSVLETQSDGQTGVVDEIKAWISKK	not soluble
MGSDKIHHHHHHPEQQVQQFAQLPVGFKNMGNTCYLNATLQALYRVNDLRDMILNYNPSQGVSNSGAQDEEIHKQIVIEMKRCFENLQNKSFKSVLPVVLLNTLRKCYPQFAERDSQGGFYKQQDAEELFTQLFHSMSIVFGDKFSEDFRIQFKTTIKDTANDNDITVKENESDSKLQCHISGTTNFMRNGLLEGLNEKIEKRSDLTGANSIYSVEKKISRLPKFLTVQYVRFFWKRSTNKKSKILRKVVFPFQLDVADMLTPEYAAEKVKVRDELRKVEKEKNEKEREIKRRKFDPSSSENVMTPREQYETQVALNESEKDQWLEEYKKHFPPNLEKGENPSCVYNLIGVITHQGANSESGHYQAFIRDELDENKWYKFNDDKVSVVEKEKIESLAGGGESDSALILMYKGFGL	soluble
MGSDKIHHHHHHQNQPLRITIDEGIIEPLPYAAPNFVPDSPAAAEYAAEIARVLAADLTGSGLFREIPSTAYISQVTSFDAPVQFADWKAINAQALITGAVSVSGNRLTVRFRLWDVFAGAELGSGLQFAGTTDGWRRMSHKVADAVYSRITGESGYFDSRVAFVSESGPKDQRRKRLAIMDYDGANVQYLTDSSSIVLAPRFSPTGDRVLYTSYQGGFPRIHILDVGQVQQRVLQSQDGTMSFAPRFSPDGQTVLFSLAQGGNTDLYAMNIASGQSTRLTSAPSIETAPSYAPDGSRIVFESDRSGTPQLYVMSAAGGEATRISFGQGRYGTPVWSPRGDLIAFTKQSKGRFHIGVMRADGSEERLLTASFLDEGPTWSPNGRVIMFTRETQGASGRAALYSVDISGRNLRPVRTPDGGSDPSWSPLQK	not soluble
MGSDKIHHHHHHQQLLLIEKLDGTLEDYLFSDDFDEKVLLSCLFQISFSLHYLQKHYKFTHNDLHINNVMYSETTTKYLYYKFNNQYFKIPTYGKIFKIIDFGRSIFTYNNKIYMNDVFTKNSEAWGQFYYPPQVQFLTKPPEDIPNIEPNYNFDLCRLSMTIIEEIDKSKLSENMFNFLNDMCIDKFNENYCEMEDNFSLYINISKNAINSLPEDILNKTIFKQYKVIKKNFPSKLYYK	not soluble
MGSDKIHHHHHHQVAYFMSFAGNETFIRELVKQFGSDEVLIVYKTNVKENVLQLQQGHIIKHAIEFKKFQVTSFVKGIKLARVTLFDNYYPELSAINKTKKDYFIQMWHANGAIKAFGWEDPSTYHRSVEDQQRFQRVYDSFDQIVVGSEKMADVFQRSWHVASDKIDRIGYPRTDKYFEESWIEKARKKIQTKLPELTQKRVILYAPTYRKDVSFSLPDDWRKIKVPQDAVLIVRLHPHLANVERQIVDASPDRVIMVDHFISTQELLCVADTLITDYSSIAFDFSLLDNARSVIFFTYDLEEFERTVGIQASFKAAFLNQMVNTVEQLNDAILFGNSDKNVIHKLNQQWNTLNDGHSSARLIKQVKERCTDE	not soluble
MGSDKIHHHHHHRVAQCCAIIDRSKIVIGFSDHGLYCIEISRQLLIPVGGEKENKQRCVETVEYDEAEQLLMMIVGPAKDRHVRIVPSAALDGRDLKWIKVNDTKGCHLLAVGTNNPGGRAGFFAVAFKKSVTIFQIDRSEKRHKKWKDLAMPGTPQSIAIFNGRLYVGFSHSFRSWSLVGVDSSPVGSGDASGAVLQHISLVNMEDTSLQFLNQQTSYEAKLIVNVPGSPDEYLLVFNMIGLYVNEMGRRSRLPEVMFPTQAKYFAYHEPYLCVFSENEVDIFNVTLAEWVQTINLRSAKPLSGDGILSTCLCNDSPIFVLLQN	not soluble
MGSDKIHHHHHHRYSLLYVPNSFIVPGGRFREFYYWDAYWIIKGLIASDMYNTTRSMIRNLASMVDKYGFVPNGGRVYYLQRSQPPFLAAMVYELYEATNDKAFVAELLPTLLKELNFWNEKRMTDVQMNGKSFKVYQYKTASNVPRPESYRVDTQNSAKLANGADQQQFYQDLASAAESGWDFSTRWFSDYKTLTSIETTKVLPVDLNGLLCWNMDIMEYLYEQIGDTKNSQIFRNKRADFRDTVQNVFYNRTDGTWYDYNLRTQSHNPRFYTSTAVPLFTNCYNTLNTGKSQKVFDYMDKMGVFTYPGGIPTSMSQESDQQWDFPNGWSPNNHMIIEGLRKSANPEMQDKGFLIASKWVMGNFRVFYETGHMWEKYNVIGSYPQPGSGGEYDVQDGFGWSNGAILDLLLTYNDRLFVPENFVNTTVTPSVESTTKSAPKYAKLPWVLVFAFMIRQLFNY	not soluble
MGSDKIHHHHHHTNEDIVKNNVNQPEKVKGNLSLVISSTSNSSRAADNEESGVTDPGIEGESTVTDAVIILNRLDENGNLTKEEFGGYLTKAQLNETTASGETIYNPFFTLANSGWYKVLVVLNPTESIEAIANSQQSTDKSKYEQIAESSYTTTGDITIAAAGQFMMVNKKEIKVDVLSNNYEDPTIKEVEVERVVSKINYVIAKPNNLYPLTVQTTDYAIAETTSGYYIYPDNKAVRLTGLHKAKNLDNDNSDVWIHEGTDGTDRRAFIKTEKTYGQTGEHIFTLLEPFPKFEYYTTSTDGELDWTVKLDKYALVNLSNSVYTARHLTDASWENCKHSASCVFLSKL	not soluble
MGSDKIHHHHHHVARLNAKQMEVFVAVMTHGSITAAGQRLNVSQPAVSRMIERFEQEAGFVAFERRRGKLVPTPEAEIFFAEVSQVYRGLDYLNEVAREIGTTRRGYLRVGVFPAFAEGWITERITRYVAGREELLTSLEPMSTDSVIEAVSRQTIDLGIALRASDREGLRSEEISSSEIVCILPKGHRLTGRPVLQPTDLSGEDFISMAAKVKARTSIDAVFDSSGVERRIRAETPWASTVCHMVAHGLGVGLVIRESAFEFAHLGYHIAAFKPRIDYRAYLITSTARPLSTAAKGFRDMLLLEFNQAKKAPRASKRWPT	not soluble
MGSDKIHHHHHHVDDGPCAARLRWTNSVMTEPLMPQTDVPFDELIIREYLLDNPDFFNRYPELLLAMRLPHMERGAISLVERRQEMLRQRVSQLEEEITSLLTMAARNEKIYQFNTELSFQLLNCADLVSLKEVLADSLKLQFNFSHVRLISVLDTDMKAIWDQRLHKGHYFGRLTQQEAKRLFGSEVGSVALTKLSEDNPVIFAIASQDATHFHPDMDNMLLEQLRRLLAHMLAKL	not soluble
MGSDKIHHHHHHVDGTSKQVIKRDKMITQAISQLTPQNKLLVEEINKNVQDTILERLNMNIAGRWNDSSLSLTLMKSTIKFVPVIDSPSRLYLVNDSEKVFRIPEKFACFYGQNDNGETIYFYAIYHAENFMKDTNPKSYYQGYVEVFGKEAADKMVESSIKRTEAERWEIMSFTPQKNETKKFEYAREHSDDGTFFILTRENTYPHICFFKDKKPYYCWGANQDELSMEPLENYLKP	not soluble
MGSDKIHHHHHHVEKLVILHTNDLHSHFENWPKIRRFMLGTRAAEQAEGASVLAFDDGDAMDRSAPLTEATQGQINVQLLNEIGYDAATIGNNEGVGNPHDVLEHLYDHANFPVALANLFEVDGSRPTWAKPFVRTQTRAGTRIAIVGFTAPFFLTYRPNGWQVKTVADVFPDILKQLSGTYDVLIVLSHLGIEADRHLAKQYPEIDVVIGGHTHHLLADGELHGTTLLTAAEKYGHYVGKVTLTLDDQHQIITRQAETFKTELMQAAAADPREIQGYESKGIALLKQHQVARLPKQLSIKYDGPSPLLDLGLEALADGAQVDAAILNAGLFLMPLGPGVVTQADLLTCLPHPMHLLKVTLSGKELWRLIMEMEKNRMFLRHFHMIGMSFRGKIFGDIGYRGISVNREKRVVLWHGKPLVPEQQYTFVTVDNFLFIPFFPTIEIMGSNELLFPKLLRNVVGEYLAQKYPL	not soluble
MGSDKIHHHHHHVEYRLPAEGSNLVGENQYYVVPEGKLTLEQIASQFQLGLTNLLEANPGVDPFLPKPGSTLLIPHQLILPNAKREGVVINSAEMRLYYYPKGKNTVEVLPIGIGQIGKDTPENWVTTVQRKRANPTWTPTVNIRKSYAAKGITLPAVWPAGADNPMGLFALYVGNLYAVHGTNATFGIGLRVSSGCVRLRDEDIEHLYNSVPVGTRVEFINQPIKATEEPDGNRYLEVHEPLSRTQAEFDSLEPVALSFDKAMTRFVAHPDTDSFTLKRLLEQRTGMPTRINP	not soluble
MGSDKIHHHHHHVGFLDGLMGGKQAPLVGLDISSSSVKLVELGQSASGQYVLERFATESFERGWIADGQIEKFDEVADAVRRVVSKSGTRSKRVAMAMPQSAVITKKIMLPAGLRDEELELQVESEANQYIPFSLDEVSLDFCVVGPSPSSVGDVEVLIAASRKDRVQDRQGLAEAAGLKPVVLDIESHASRLAMMRIVSALPNEGRDALVALFEIGAETTSLKVLRDEELLYDRDQAFGGSQLTQMISRQYGFSFEEAEQKKLASDLPEDYESSLLVPFVDSLAQEIGRALQYFFTSTPHHKVHYVMLGGGTATLPGLKERVTELTGFASMVVNPFEGMRLGSAVRESKLRREAPAYLTACGLAMRRFL	not soluble
MGSDKIHHHHHHVHHRHHKKGIIHRDADEMIEFPKRSNDRLGETMIHGQIICHGTPLDYVRPYLSSKKYPRVIINICVSDDGGWYRLTTGNMFDLEGSVTFTVRHQCLMDKLPPMIQCAVPYYTTEVTIDLSSNTTYIGRSFELSKMEAYSSADCLY	not soluble
MGSDKIHHHHHHVKLHVIHYNDLHSHFDMWPRYMSFMKEHRTYDSLVFDLGDHADRVAPATEATQGKINTHLLNELSPTAVTIGNNEGITFPHDWLAELYSDATFPVLVSNLSAPFAKAGMIQELPTGKVGIFGLTAPYYELYELLGWSIENPFEAAAREIEALRDQVDVLICLSHLGFYQDEDLAERFPELDLIIGSHTHHVLDDGVVRNGVLIAQAGKHGQYAGEIYLNTDTGEKEAVLHPLESYPEDEATAVLLDKEQYLAERQMKQPIGRTSGLANDWFNPSPFTQLLADTMRDWCQADLACVPAGMLLGSLSPGPVSSYDLHRLCPHPINPCKVTMTGKELKQFIAEVDTNRFEQLKVRGLGFRGKLMGKMHYAGNRQHLDDAKHYTVVLPDMFTFGPLFPEIKEMPKEYFMPELLRDLLFDRLSEKSEFGELPIRKH	not soluble
MGSDKIHHHHHHVLQLESIGVMDNYNKDLTPDQASAFLEVVDASLRIKKKAQLFSWLQGHFQFLLPHEVLLCGFAVGVGRNFSLETFSSTRYVTDAQVAIAMHERTGVVMKAIQAWRQTSQPVLIDPYLKDGNFGRFTVPKIDQVNLQESELRNIAAYGLSSADGSISSFFSFSRISGELNASHAYMLELLVPYLHSVLMRVSDGVFNFGDAMGEGVNAGIITPREKEILQWVHTGKSNWEIATILEISPLTVKNHMQNILRKLDVQNRSHAAAKAYRLGLIRH	not soluble
MGSDKIHHHHHHVLRAGLIHSLASRPQTWHSTAMDSDGYEIETHVGRRRAMRYHFWIDHEILRYPWTNFDEIAPGVFRSNHPTRARFKAYAERGIKTILTLRGGEDRPHHLLEVEACRDFGLTFECVPMSARHAPTVAQLSAVFEVLDRIERPFLIHCKSGADRTGLVSAIYLMHYENIPFDQARVQLSFRYIHIRRSQTGILDVFLEAFAARHAETGIGIRDWIMTEYDEAALTASFDQRQRNLWPWEGWRSGVS	not soluble
